Here are results for 32 sequences from the supplement of paper PMC9170038.

The subject of this series is MS2 coat protein. The experiment in a line: apparent KD of MS2 coat protein; designed switch direction (-1 OFF switch, 1 ON switch): -1; higher = weaker reporter binding. The procedure, abridged:
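The apparent KD reported per design is the median over clusters of curve fits to normalised cluster fluorescence. The RNA switches were transcribed on Illumina chips by stalled E. coli RNA polymerase. SNAP-549-labelled MS2 coat protein was titrated from 0.7 or 1.5 nM, doubling up to 3 µM, in Tris-HCl pH 7.5 buffer containing KCl, MgCl2, BSA, DTT, tRNA and Tween-20, with no input, 200 uM small-molecule ligand, or an oligonucleotide input.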

Where [1] appears, read: input ligand: microRNA oligo, concentration not stated.
Where [2] appears, read: Eterna round: R95, input ligand: FMN 200 uM.
Setting [3] is: Eterna round: R95, input ligand: microRNA oligo, concentration not stated.
Where [4] appears, read: Eterna round: R95, input ligand: none.

Take “UAGUUAUUCACAGGAUAUCGCCUCUUAUUACAUGAGGAUCACCCAUGUUUAUUUUGUUACAUGUUCGAGAAGGGUGUAGUCUUU [JR_ExcNG2_Sub046] (Eterna round: R96, puzzle: Exclusion NG 2)”: the “apparent KD of MS2 coat protein” value runs as follows: (input ligand: FMN 200 uM) 439 nM; under setting [1], 436 nM; (input ligand: none) 535 nM. In the case of “UAUAACAAGCCAGAUCCUAACAUGAGGAUCACCCAUGUGCUCGUCUGAUUUUGUACUAUCAUGAGAGUGAUAGUACU [Level Boss var2-03] (puzzle: Sensor v3, turn-off variant 1)”, the “apparent KD of MS2 coat protein” value is, setting by setting: under setting [2], 181 nM; under setting [3], 488 nM; under setting [4], 192 nM. Consider “UAUAACCAAGGAUAUACAUGAGGAUCACCCAUGUAAUAUAAAAUAAAAUAAAUAAAAUGUAGAAGGUGGGAUAU (Eterna round: R97, puzzle: Exclusion 3)”, for which the “apparent KD of MS2 coat protein” value stood at 40.8 nM (input ligand: FMN 200 uM) and 37.6 nM (input ligand: none). In the case of “UAUAAUACAUAGGAUAUCGAAUAAAUCAUUUAACGAGAAGGAUGAACAUGAGGAUCACCCAUGUGGUAUCAUGG [Mat - Exclusion 6 - JL Mod - D12] (puzzle: Exclusion 6)”, the “apparent KD of MS2 coat protein” value under setting [3] came to 180 nM. Regarding “UAUACAAAAGAUACCUCGUGACAUGAGGAUCACCCAUGUUUUGAGGAUAUCAGACUUCAUGGUCAUGAGAAGGCAGAGCAUGAU [Tireala] (Eterna round: R96, puzzle: Exclusion NG 3)”, the “apparent KD of MS2 coat protein” value amounted to 20.4 nM (input ligand: FMN 200 uM), 10.1 nM under setting [1] and 13.6 nM (input ligand: none). With “UAUAUAUAGUAAGGAUAUGUAAUUAUUUUAUGAACAGAAGGUACUGACAUGAGGAUCACCCAUGUUUUAGUGUGGGCAUGUAGA [JMF's solution 48] (Eterna round: R96, puzzle: Exclusion NG 1)”, the “apparent KD of MS2 coat protein” value under setting [1] worked out at 61.3 nM.

As for “UAUAUAUAGUAAGGAUAUGUAAUUAUUUUGUAAACAGAAGGUACUGACAUGAGGAUCACCCAUGUUUUAGUGUGGGCAUGUAGA [JMF's solution 44] (Eterna round: R96, puzzle: Exclusion NG 1)”, the “apparent KD of MS2 coat protein” value under setting [1] came to 84.5 nM.

For “UAUAUAUAGUAAGGAUAUGUAUAUAUUCUAUAAACAGAAGGUACUGACAUGAGGAUCACCCAUGUUUUAGUGUGGGCAUGUAGA [JMF's solution 62] (Eterna round: R96, puzzle: Exclusion NG 1)”, the “apparent KD of MS2 coat protein” value under setting [1] is 27.4 nM. On the same count and under the same terms, next, “UAUAUAUAGUAAGGAUAUGUAUUAAUUUUAUUAACAGAAGGUACUGACAUGAGGAUCACCCAUGUUUUAGUGUGGGCAUGUAGA [JMF's solution 90] (Eterna round: R96, puzzle: Exclusion NG 1)”: 69.4 nM; “UAUAUAUAGUAAGGAUAUGUAUUUAUUCUAUAAACAGAAGGUACUGACAUGAGGAUCACCCAUGUUUUAGUGUGGGCAUGUAGA [JMF's solution 18] (Eterna round: R96, puzzle: Exclusion NG 1)”: 33 nM. As for “UAUAUAUAGUAAGGAUAUGUAUUUAUUUUAUAGACAGAAGGUACUGACAUGAGGAUCACCCAUGUUUUAGUGUGGGCAUGUAGA [JMF's solution 27] (Eterna round: R96, puzzle: Exclusion NG 1)”, the “apparent KD of MS2 coat protein” value (input ligand: FMN 200 uM) was found to be 122 nM, the “apparent KD of MS2 coat protein” value under setting [1] was found to be 78.5 nM and the “apparent KD of MS2 coat protein” value (input ligand: none) is 94.4 nM. For “UAUAUAUAGUAAGGAUAUGUAUUUGUUUUAUAAACAGAAGGUACUGACAUGAGGAUCACCCAUGUUUUAGUGUGGGCAUGUAGA [JMF's solution 11] (Eterna round: R96, puzzle: Exclusion NG 1)”, under setting [1], the “apparent KD of MS2 coat protein” value was 32.8 nM. Consider “UAUAUGUGAGGAUAUCAGGUGUGCUAGCGUACUGGUACAUCUGAGAAGGCACAUGAGGAUCACCCAUGUAUCUU [JL-ex4-3.25 Brourd mod] (puzzle: Exclusion 4)”, for which the “apparent KD of MS2 coat protein” value under setting [3] turned out to be 25.5 nM. Regarding “UAUGAAGUAGGAUAUACAUGAGGAUCACCCAUGUCCUUACUGAGACCGGGCACGGCUCGUAGAAGGGCUUUCGA [Eternabot (L2) Solution 50] (Eterna round: R97, puzzle: Exclusion 3)”, the “apparent KD of MS2 coat protein” value (input ligand: FMN 200 uM) turned out to be 36.7 nM and the “apparent KD of MS2 coat protein” value (input ligand: none) is 40.7 nM. The corresponding values for “UAUGGUUAAGUCAGGAUAUACAAACAGAAAUCUGAGUAGAAGGGACAUGAGGAUCACCCAUGUAUGGUAGUGUU [Ex4 #56] (Eterna round: R97, puzzle: Brourd's mod of Exclusion 4)” are 48.6 nM and 44.6 nM. In the case of “UAUGUCUUUGUGAGGAUAUACUUUGUUUGGUCGUAGUAGAAGGCACAUGAGGAUCACCCAUGUAGAUUUUUGGU [JR_BME4_Sub011] (puzzle: Brourd's mod of Exclusion 4)”, the “apparent KD of MS2 coat protein” value under setting [3] was found to be 20.1 nM. Regarding “UAUUAACAAGCGAGAUCCCACAUGAGGAUCACCCAUGUGCUCGUCUUAUAAGGUACUGUGACGAAAGUCACGGUACC [Sensor 3, v1 - 91 v2] (Eterna round: R97, puzzle: Sensor, turn-off variant 1)”, the “apparent KD of MS2 coat protein” value (input ligand: FMN 200 uM) was determined as 17 nM and the “apparent KD of MS2 coat protein” value (input ligand: none) came to 15.7 nM.

As for “UAUUAACAUGUAGGAUAUCUGCACGUUUAGUGCAGAGAAGGACAUGAGGAUCACCCAUGUAGAUCAUAAUAAUUUAAUUUAAUU [ENG1/6-D2] (Eterna round: R96, puzzle: Exclusion NG 1)”, the “apparent KD of MS2 coat protein” value worked out at 541 nM (input ligand: FMN 200 uM), 141 nM under setting [1] and 117 nM (input ligand: none).

In the case of “UAUUAAUUAAUUAAUUAAUACAUGAGGAUCACCCAUGUAAUUUAAGAUCCUUAUACAAGCUUUGAUCUCGUAAUUAA [Stov1/4-A2] (Eterna round: R97, puzzle: Sensor, turn-off variant 1)”, the “apparent KD of MS2 coat protein” value is, setting by setting: (input ligand: FMN 200 uM) 861 nM; (input ligand: none) 696 nM. Regarding “UAUUAGCAAGUGAGAUCCGACAUGAGGAUCACCCAUGUGCUCGUCUUAUAAGCUAAUAUAAGAAAACUUAUAUUAGC [Elimod 7 - Jieux - Sensor, turn-off variant 1] (Eterna round: R97, puzzle: Sensor, turn-off variant 1)”, the “apparent KD of MS2 coat protein” value was found to be 242 nM (input ligand: FMN 200 uM) and 284 nM (input ligand: none). Consider “UAUUAGGGAGGAUAUCGCAGUUGCAACAUGAGGAUCACCCAUGUGAACAGCCUCACCAAUCGAGAAGGCCUGAGUG [Eternabot (L2) Solution 59] (Eterna round: R97, puzzle: Exclusion 5)”, for which the “apparent KD of MS2 coat protein” value runs as follows: (input ligand: FMN 200 uM) 71 nM; (input ligand: none) 75.5 nM. On to “UAUUAGUAAGGAUAUGAGUCGUAGAACAAUAGUACUACGUCUCAGAAGGUACAUGAGGAUCACCCAUGUUCAUU [Mod of Fisker 2 - Jieux - Exclusion 4] (Eterna round: R97, puzzle: Exclusion 4)”, for which the “apparent KD of MS2 coat protein” value (input ligand: FMN 200 uM) is 27.4 nM and the “apparent KD of MS2 coat protein” value (input ligand: none) was determined as 19 nM. As for “UAUUAGUGAGGAUAUGAGUCGUAGAACAAUAGUACUACGUCUCAGAAGGUACAUGAGGAUCACCCAUGUUCCUC [Fiskers Ex 4 Super Stable 44 mod 32] (puzzle: Exclusion 4)”, the “apparent KD of MS2 coat protein” value under setting [3] was 18.9 nM. With “UAUUAGUGAGGAUAUGAGUCGUAGAACAAUAGUACUACGUCUCAGAAGGUACAUGAGGAUCACCCAUGUUCCUU [Fiskers Ex 4 Super Stable 44 mod 34] (puzzle: Exclusion 4)”, under setting [3], the “apparent KD of MS2 coat protein” value came to 12 nM.

For “UAUUCGCAAGCGAGAUCCCACAUGAGGAUCACCCAUGUGCUCGUCUUAUAAGGUACUGUGACGAGAGUCACGGUACC [Mat - Sensor, turn-off var - Eli Mod - D82] (Eterna round: R97, puzzle: Sensor, turn-off variant 1)”, the “apparent KD of MS2 coat protein” value is, setting by setting: (input ligand: FMN 200 uM) 16.8 nM; (input ligand: none) 14.7 nM.

“UAUUUAAUUAACAAGCUUUACAUGAGGAUCACCCAUGUGAUCAUGCUCGUCUUAGGUACAGGCUUCGGCCUGUACCA [Stov1/6-B2] (Eterna round: R97, puzzle: Sensor, turn-off variant 1)”: the “apparent KD of MS2 coat protein” value by setting is: (input ligand: FMN 200 uM) 51.8 nM; (input ligand: none) 55.9 nM. Take “UAUUUCAUCUAUGGGAGUAACAUGAGGAUCACCCAUGUAUGUCUUGUUUUUUGUUCGUCUAAGACUUUCUGAUCAGU [JR_SV3TOV1_Sub031] (Eterna round: R96, puzzle: Sensor v3, turn-off variant 1)”: the “apparent KD of MS2 coat protein” value is, setting by setting: (input ligand: FMN 200 uM) 39.4 nM; under setting [1], 43.1 nM; (input ligand: none) 35.6 nM. With “UAUUUCAUCUAUGGGAGUAACAUGAGGAUCACCCAUGUAUGUCUUGUUUUUUGUUCGUCUAAGACUUUCUGAUCAGU [JR_SV3TOV1_Sub031] (puzzle: Sensor v3, turn-off variant 1)”, the “apparent KD of MS2 coat protein” value runs as follows: under setting [2], 34.2 nM; under setting [3], 45.5 nM; under setting [4], 35.4 nM. On to “UCAAAGUCAGGAUAUACAUGAGGAUCACCCAUGUAAAAUUUUAAUUUAAUUUGAAGGUGUAGAAGGGACAAACU [Ex3 #34] (Eterna round: R97, puzzle: Exclusion 3)”, for which the “apparent KD of MS2 coat protein” value is, setting by setting: (input ligand: FMN 200 uM) 39.2 nM; (input ligand: none) 38.8 nM. Consider “UCAAGUUUUUAGAUUCUUAACAUGAGGAUCACCCAUGUGCUCGUCUUGUUGUACUAUCACUCGAAAGUGAUAGUACA (Eterna round: R97, puzzle: Sensor, turn-off variant 1)”, for which the “apparent KD of MS2 coat protein” value turned out to be 43.5 nM (input ligand: FMN 200 uM) and 46.4 nM (input ligand: none).

In the case of “UCACGGGACUAAGGAUAUACAUGAUCCAUUUUUGUAGAAGGUAGAAUGUUAGAUCAUAAACUAAACAUGAGGAUCACCCAUGUU [JR_ExcNG1_Sub089] (Eterna round: R96, puzzle: Exclusion NG 1)”, under setting [1], the “apparent KD of MS2 coat protein” value stood at 20.2 nM.

As to “UCACGGGAUUGAGGAUAUAUAUUAAUUUUUACAAUAGAAGGCAAAUUGUUAGUUUUUUCACUAUACAUGAGGAUCACCCAUGUU [JR_ExcBG1_Sub079] (Eterna round: R96, puzzle: Exclusion NG 1)”, the “apparent KD of MS2 coat protein” value under setting [1] was determined as 18.9 nM.
